Data published in PMC5335332, “Arsenite oxidation regulator AioR regulates bacterial chemotaxis towards arsenite in Agrobacterium tumefaciens GW4” (Scientific Reports, 2017).

Assays:
[1] = biological target: T1, Mcp (sensing domain; truncated Mcp); test: intrinsic tryptophan fluorescence quenching at […] nm; format: binding, Agrobacterium tumefaciens; conditions: 1.0 μM protein, 0-25 μM As(III), 1 h, room temperature
T1 construct: predicted extracellular sensing domain, aa 43-325, EcoRI-HindIII in pET-28a(+), His-tagged, E. coli, Ni-NTA; one of 20 mcp genes in the genome; Trp residues W44, W166, W254, W308

[2] = system: T2, AioR DNA-binding domain (HTH) (Agrobacterium tumefaciens GW4), ORF:ca4d298f; test: EMSA; conditions: 20 mM Tris-HCl pH 7.0, 50 mM NaCl, 1 mM DTT, 10 mM MgCl2, 100 ug/mL BSA; 28 C, 30 min; 6% native PAGE in 1x TGE
T2 sequence: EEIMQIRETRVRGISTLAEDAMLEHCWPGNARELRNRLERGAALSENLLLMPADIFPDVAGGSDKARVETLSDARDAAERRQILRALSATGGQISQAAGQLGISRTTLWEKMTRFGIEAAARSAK

[3] = system: T2, AioR DNA-binding domain (HTH) (Agrobacterium tumefaciens GW4), ORF:ca4d298f; test: competition; conditions: 20 mM Tris-HCl pH 7.0, 50 mM NaCl, 1 mM DTT, 10 mM MgCl2, 100 ug/mL BSA; 28 C, 30 min; 6% native PAGE in 1x TGE
[4] = system: T2, AioR DNA-binding domain (HTH) (Agrobacterium tumefaciens GW4), ORF:ca4d298f; test: DNase I footprinting; conditions: 20 mM Tris-HCl pH 7.0, 50 mM NaCl, 1 mM DTT, 10 mM MgCl2, 100 ug/mL BSA; 28 C, 30 min; 6% native PAGE in 1x TGE

Compound	Kd [1] [µM]	binding [2]	binding [3]	binding [4]
O[As](O)O [As(III)]	11 ± 3.02			
TACGGAAAGCACAATACGTGTGCGAATGAAACCAGTTTGCAGTTGTCGGATTTCCGCTTATCATTGAAATAAATGCCGTTATTTTGTGCAGTATAGATTGATTAATATGTTTTATTTATAATATAAATTTTTGCTACATAGCAGTATTCGGATTTAATCGGAGCCAGCATTTGCTTATTGCTACATATATAAACACCTATAAGCTCTAATATGATTCTTTTATGACAATAATATCGAAAAATTAACTATGCGATCCCAG (double strand) [mutant mcp regulatory region]		no binding		
TACGGAAAGCACAATACGTGTGCGAATGAAACCAGTTTGCAGTGTTCGGATTTCCGAACATCATTGAAATAAATGCCGTTATTTTGTGCAGTATAGATTGATTAATATGTTTTATTTATAATATAAATTTTTGCTACATAGCAGTATTCGGATTTAATCGGAGCCAGCATTTGCTTATTGCTACATATATAAACACCTATAAGCTCTAATATGATTCTTTTATGACAATAATATCGAAAAATTAACTATGCGATCCCAG (double strand) [mcp regulatory region, 259 bp]		binds	binds	binds
TTTCACGCACGACACTCTGGGAGAAGATGACGCGTTTCGGAATAGAAGCAGCCGCACGTTCGGCCAAATGAACAACGGCGGCGAGACGCTGTTCGGAAAAGCGAACGGGCAACTGGCCATCAAACGGGAAAATATCTATATTTCAGTATTTTAGGAATTGGCATAGCAAT (double strand) [aioBA regulatory region, 170 bp]		binds		
